This series concerns the target FMRP (rat, UniProt Q80WE1 1-593). The series can be described thus: EMSA; 150 mM KCl, tRNA; three shifted bands; Filter binding: 10 mM Tris pH 7.5, 50 mM KCl, 1 mM DTT, room temperature; REMSA: 20 mM HEPES pH 7.6, 150 mM KCl, 0.5 mM DTT, 5% glycerol, 50 ng/ul tRNA, room te. (A gel shift assay detects complexes by their altered migration in electrophoresis.)

These results are taken from publication PMC5538295.

B1: human MMP-9 wild-type probe (ssRNA)
RNA: GUUCUGGAGGAAAGGGAGGAGUGGAGGUGGGCUGGGCCCUCUCUUCUCACCUUUGUUUUUUGUUGGAGUGUUUCUAAU
In the case of B1, the binding result was “binds”.
